The record followed here is the RNAGym collection of RNA variant scans (doi:10.7554/elife.90254).

B1: OR4K15 (parent)
chain: GUUAACGGUCAUAGGCCAUGGAAACUAGGAGCACCAUUUCGCUGCCAGUGAAGAAAUGAACAAAGAAAAUCUGGGCCAGGCAGGCAUCAAAAGAAAUAGUCUUGCGCUCAACCAGAAAGUCUGUAAUCAUUUUAAGGGUA

This series covers variants of B1. Briefly: self-cleavage, relative activity (ratio to wild type); higher = more cleavage; in vitro, sequencing; the parent is a self-cleaving ribozyme.
As for G58U A111G, the self-cleavage was found to be 0.02. For the variant A59G U132A, the self-cleavage is 0.98.

Turning to A55G U108G, the self-cleavage is 0.03. Take U57A A68U: the self-cleavage was found to be 1.15.

Take U57C U108C: the self-cleavage was determined as 0.01. As for U57A A63G, the self-cleavage came out at 1.7. For the variant U57A A116U, the self-cleavage stood at 0.15. In the case of U57A A116G, the self-cleavage turned out to be 0.94.

On to A56G A111G, for which the self-cleavage was found to be 0.01. A59G A125G: the self-cleavage amounted to 0.4.

With U57C A69C, the self-cleavage worked out at 0.84.

On to A55G U102A, for which the self-cleavage worked out at 0.81. Under A56G G119A stands 2.09; under G58U, 1.43; under G58A, 1.13.

Regarding U57C A92G, the self-cleavage was 0.71. For A55G C128A, the self-cleavage was 1.06.

For the variant A55U U102A, the self-cleavage was found to be 1.44. Under A55U U102C stands 1.73. Next, U57C G73A: 0.15. Under A56G A125G stands 0.51; under A56G A125U, 1.32; under U57A U70C, 0.48. Turning to G58U U102C, the self-cleavage came to 1.68. Regarding U57C U97A, the self-cleavage is 1.32.

In the case of A59U A89G, the self-cleavage worked out at 1.48.

Regarding A56U U130C, the self-cleavage stood at 0.34. For A59U A69G, the self-cleavage was found to be 1.51. For A59C A68G, the self-cleavage was 2.1. Next, A55G U120C: 0.85. Regarding A59G C71A, the self-cleavage was 0.48. Next, A55U U120C: 0.86. In the case of U57A U130A, the self-cleavage was 0.77. A56G A86C: the self-cleavage came to 1.48. For the variant A56G A86U, the self-cleavage worked out at 1.67. For the variant A56G A86G, the self-cleavage amounted to 0.8. With A55U, the self-cleavage turned out to be 1.13. Turning to A59G C101A, the self-cleavage was found to be 0.13. As for A59U A64G, the self-cleavage is 1.4.

As to A56U C128A, the self-cleavage turned out to be 1.6. In the case of A56G A68C, the self-cleavage was 2.25. For the variant A56G A116G, the self-cleavage stood at 0.66. Under A56G U120G stands 1.98; under A56G U120C, 0.89.

Turning to A59U A82U, the self-cleavage is 0.15. In the case of A59U A82G, the self-cleavage worked out at 0.43. Consider A55G A134G, for which the self-cleavage came to 1.23.

In the case of A56G U132A, the self-cleavage worked out at 2.05.

Turning to U57A U131C, the self-cleavage is 1.07. Under A55U U139C stands 0.56.

For A59U A91U, the self-cleavage worked out at 1.44. Turning to U57A A118G, the self-cleavage worked out at 1.37. Next, A59G A68G: 1.22.

On to U57C U120A, for which the self-cleavage is 2.01.

On to U57C U120C, for which the self-cleavage came to 0.41. A59G A96G: the self-cleavage was determined as 1.66. Next, A59G A96U: 0.71. In the case of A55U U133A, the self-cleavage worked out at 1.58. Turning to A55G G106U, the self-cleavage is 0.02. In the case of U57C G84A, the self-cleavage stood at 1.76. Under A55U U57G stands 1.54; under A59G G104A, 0.06; under U57G U127C, 1.33. Under A56G A67G stands 0.97; under A55G G119C, 1.03; under U57A G106A, 0.01.

As to A59G C121A, the self-cleavage worked out at 2.81. Regarding U57C U103C, the self-cleavage worked out at 0.86.

In the case of A55G G93U, the self-cleavage is 1.76. For A56C A59G, the self-cleavage came out at 1.51.

Take A59G G73A: the self-cleavage was found to be 0.17. As to A59U A66G, the self-cleavage stood at 1.31. Under A55U A56C stands 2.18. Consider A59G U120A, for which the self-cleavage is 1.23. In the case of U57A U102C, the self-cleavage stood at 0.78.

Take U57A A82U: the self-cleavage was 0.31. Consider A59G A63G, for which the self-cleavage was 1.4. Under A55U U131C stands 2; under A56G A92U, 2.54; under A56G A92G, 1.68. Next, U57C C76U: 0.13; A59U A62U: 1.44; A59U A62C: 1.11.

For A59G A117U, the self-cleavage came to 0.95. On to A56G A63U, for which the self-cleavage is 1.68. Under A56G A78U stands 0.2.

As for A56G A78G, the self-cleavage was 0.25. Consider A56G A78C, for which the self-cleavage stood at 0.22. In the case of A59G A111U, the self-cleavage was determined as 0.07. As to U57C A62G, the self-cleavage stood at 0.7. With U57A A62G, the self-cleavage came to 1.13. With U57C A118G, the self-cleavage stood at 0.43. Regarding U57C A118U, the self-cleavage worked out at 0.37. Turning to A55U A126G, the self-cleavage is 1.47. Under A59U A111G stands 0.02. Next, A59U A111U: 0.13. Take G58U A126G: the self-cleavage came out at 0.8.

With A56G U103A, the self-cleavage turned out to be 0.04. Consider A56G U103C, for which the self-cleavage turned out to be 0.25.

Take U57C U122C: the self-cleavage was determined as 0.84. Turning to U57C U122A, the self-cleavage was 1.35. As for U57C A89U, the self-cleavage came out at 0.77. Next, G58A U102C: 2.39; U57A A69G: 0.95. For the variant U57A A69C, the self-cleavage was found to be 0.34. Regarding U57C A82G, the self-cleavage stood at 0.49. On to A55G G83A, for which the self-cleavage was determined as 0.71. On to A56C A116U, for which the self-cleavage came to 0.13. Take A56G A140U: the self-cleavage is 2.1. Consider A59G C107U, for which the self-cleavage was determined as 0.01.

For the variant A55G U70C, the self-cleavage came to 0.29. In the case of A59G A140G, the self-cleavage was 1.25. Under A59U A78C stands 0.4.

A55U A114U: the self-cleavage worked out at 0.03.

As to A55U A114G, the self-cleavage was 0.21.

For the variant A55U U122A, the self-cleavage stood at 0.96.

As for A59G U124C, the self-cleavage amounted to 0.78. Under A55G U132C stands 1.46; under A55G U132A, 1.61. On to A56G A95G, for which the self-cleavage was found to be 1.69. As for A55G U97A, the self-cleavage is 1.51. On to A55G U97C, for which the self-cleavage was 1.27. On to U57A A125U, for which the self-cleavage came to 1.1. Under A59G A67G stands 1.28; under G58U U120A, 1.17; under A56G A66G, 0.93. As to A56G A66C, the self-cleavage was found to be 1.76.

Take A59U A118G: the self-cleavage worked out at 0.75. Turning to U57C A140G, the self-cleavage was found to be 1.11. As to A59G G80U, the self-cleavage was 0.26. Regarding U57A U127A, the self-cleavage turned out to be 1.95. U57A U127C: the self-cleavage amounted to 0.65. Regarding G58A U132C, the self-cleavage amounted to 1.64. For the variant G58A A111G, the self-cleavage came to 0.

On to U57C A60U, for which the self-cleavage came out at 1.78. For U57C A60G, the self-cleavage was found to be 1.01. Regarding A59C U127A, the self-cleavage amounted to 1.3. As to A55U U124A, the self-cleavage was found to be 1.07.

For U57C U70C, the self-cleavage was 0.47.

A59U A60G: the self-cleavage came to 1.32. Regarding A59G U139A, the self-cleavage was 2.02.

Consider A59G U139C, for which the self-cleavage worked out at 1.4. Under A56U U127C stands 1.47; under A55G C109U, 0.82; under A56C A69G, 1.24. Under A55G U57G stands 1.41; under A55G U57C, 1.13; under U57A A59U, 2.2. As for U57A A59G, the self-cleavage came out at 0.5. Consider A59G U72C, for which the self-cleavage was determined as 0.23.

For U57G A68G, the self-cleavage was 1.53. Under A55U A96C stands 0.74.

As for U57G U87A, the self-cleavage turned out to be 1.47. Turning to G58A U130C, the self-cleavage came to 0.82. Consider G58U U124C, for which the self-cleavage turned out to be 0.25.

For the variant U57G A95G, the self-cleavage worked out at 2.15. Regarding A59G U127C, the self-cleavage is 0.7. Consider A59G U127A, for which the self-cleavage was 1.82.

Turning to A55U A62G, the self-cleavage turned out to be 0.23. As to A59G U97C, the self-cleavage was determined as 0.82. For the variant U57A G123C, the self-cleavage amounted to 1.58. Regarding U57A U100C, the self-cleavage is 2.19.

Consider U57C U124G, for which the self-cleavage worked out at 0.94. Under U57C U124C stands 0.59. For the variant U57A A78U, the self-cleavage stood at 0.16.

As for U57C G75C, the self-cleavage turned out to be 0.17. Consider U57C G75A, for which the self-cleavage was found to be 0.12.
